Assay results from the supplement of paper PMC7877785.
± gives the uncertainty stated by the source.

Assay: self-splicing fitness, log relative to wild type (ln ratio); higher = more splicing; Tetrahymena group I intron in knt gene, E. coli kanamycin selection, DiMSum; sequences stand for … in CUCUCU…GGAGGGAAAAGUUAUCAGGCAUGCACCUGGUAGCUAGUCUUUAAACCAAUAGAUUGCAUCGGUUUAAAAGGCAAGACCGUCAAAUUGCGGGAAAGGGGUCAACAGCCGUUCAGUACCAAGUCUCAGGGGAAACUUUGAGAUGGCCUUGCAAAGGGUAUGGUAAUAAGCUGACGGACAUGGUCCUAACCACGCAGCCAAGUCCUAAGUCAACAGAUCUUCUGUUGAUAUGGAUGCAGUUCACAGACUAAAUGUCGGUCGGGGAAGAUGUAUUCUUCUCAUAAGAUAUAGUCGGACCUCUCCUUAAUGGGAGCUAGCGGAUGAAGUGAUGCAACACUGGAGCCGCUGGGAACUAAUUUGUAUGCGAAAGUAUAUUGAUUAGUUUUGGAGUACUCGUGGUCG
How it was run: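 Library with all eight P1ex-region intron nucleotides randomised, intron inside the knt kanamycin-resistance gene on pET-22b(+), in E. coli BL21(DE3). Cells grew overnight at 37°C or 30°C on LB agar with or without 25 μg/mL kanamycin (plus 100 μg/mL carbenicillin, 50 μM IPTG, 0.2% rhamnose), in six replicate transformations. Pooled colonies were amplicon-sequenced on Illumina HiSeq 2500. DiMSum fitness is the error-weighted combination of wild-type-normalised replicate fold changes, kanamycin versus none.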

Row | Sequence | self-splicing fitness (ln) (30 °C) | self-splicing fitness (ln) (37 °C)
1 | CUCGAGCAAUAUUACGCAGU | -2.06 ± 0.12 | -2.83 ± 0.25
2 | UGCCAGCAAUAUUACGGCGG | -3.73 ± 0.18 | -1.48 ± 0.13
3 | AAGCAGCAAUAUUACGCAUC | -2.72 ± 0.18 | –
4 | CGACAGCAAUAUUACGCGUU | -4.77 ± 0.26 | -3.29 ± 0.18
5 | UCUGAGCAAUAUUACGUAGC | – | -2.04 ± 0.27
6 | AGCUAGCAAUAUUACGUCGU | -1.38 ± 0.1 | -1.4 ± 0.14
7 | GGCUAGCAAUAUUACGAGAC | -3.62 ± 0.44 | –
8 | CAGAAGCAAUAUUACGUUUA | -3.13 ± 0.18 | -1.95 ± 0.12
9 | AGCAAGCAAUAUUACGUAGC | -3.34 ± 0.18 | -2.45 ± 0.19
10 | GCACAGCAAUAUUACGAUGG | -0.945 ± 0.072 | -1.06 ± 0.081
11 | AAACAGCAAUAUUACGUACU | -0.273 ± 0.06 | -0.159 ± 0.073
12 | GGGUAGCAAUAUUACGUCGU | -0.541 ± 0.086 | 0.73 ± 0.12
13 | AACUAGCAAUAUUACGUUGC | -3.47 ± 0.17 | -1.9 ± 0.22
14 | GGUCAGCAAUAUUACGGUCG | -0.085 ± 0.066 | 0.661 ± 0.09
15 | GCCGAGCAAUAUUACGCCGG | -3.21 ± 0.3 | -2.08 ± 0.38
16 | AAUCAGCAAUAUUACGAGUC | -2.05 ± 0.11 | -1.21 ± 0.11
17 | AUUUAGCAAUAUUACGCCUC | – | -0.949 ± 0.27
18 | AGCAAGCAAUAUUACGGAUC | -2.73 ± 0.17 | -1.08 ± 0.16
19 | GAGAAGCAAUAUUACGACUC | -2.38 ± 0.18 | -1.82 ± 0.23
20 | UGCGAGCAAUAUUACGCCGU | -3.36 ± 0.23 | -2.54 ± 0.3
21 | UAGAAGCAAUAUUACGUACG | -0.237 ± 0.1 | -0.721 ± 0.13
22 | AUUCAGCAAUAUUACGCGGA | -1.73 ± 0.19 | -0.735 ± 0.14
23 | GAACAGCAAUAUUACGGUUA | -0.16 ± 0.059 | -0.275 ± 0.064
24 | AUGAAGCAAUAUUACGUUGA | -2.39 ± 0.1 | -0.85 ± 0.12
25 | CAGGAGCAAUAUUACGAAUG | -3.6 ± 0.2 | -2.76 ± 0.22

Row | Sequence | self-splicing fitness (ln) (30 °C) | self-splicing fitness (ln) (37 °C)
26 | GGAAAGCAAUAUUACGGGCG | -0.494 ± 0.079 | -0.213 ± 0.11
27 | UUUGAGCAAUAUUACGAUCA | -2.12 ± 0.24 | -1.28 ± 0.25
28 | CACAAGCAAUAUUACGUAAG | -0.372 ± 0.047 | 0.157 ± 0.065
29 | UUGCAGCAAUAUUACGAAUC | – | -2.06 ± 0.47
30 | GCCCAGCAAUAUUACGACGU | 0.175 ± 0.053 | 0.441 ± 0.067
31 | UUUCAGCAAUAUUACGCGUU | -2.13 ± 0.21 | -0.852 ± 0.17
32 | CAAUAGCAAUAUUACGUAUU | -3.25 ± 0.21 | -2.65 ± 0.18
33 | UCAAAGCAAUAUUACGCCUU | -3.63 ± 0.26 | -2.93 ± 0.28
34 | UGAUAGCAAUAUUACGAUCC | -0.554 ± 0.12 | 0.433 ± 0.15
35 | UAAAAGCAAUAUUACGAAGA | -2.44 ± 0.11 | -1.12 ± 0.097
36 | CUUGAGCAAUAUUACGCUUA | -2.82 ± 0.29 | -3.02 ± 0.37
37 | GAUAAGCAAUAUUACGGACU | -0.638 ± 0.07 | -0.289 ± 0.094
38 | UCUAAGCAAUAUUACGGUUU | -3.21 ± 0.43 | -2.56 ± 0.31
39 | AGGGAGCAAUAUUACGGGUA | -3.37 ± 0.21 | -2.64 ± 0.17
40 | CAAAAGCAAUAUUACGGCAC | -2.9 ± 0.14 | -2.09 ± 0.15
41 | AACGAGCAAUAUUACGCAAU | -4.26 ± 0.36 | -2.45 ± 0.27
42 | GCGGAGCAAUAUUACGUCGG | -2.62 ± 0.12 | -1.78 ± 0.17
43 | ACAGAGCAAUAUUACGCCAU | -3.46 ± 0.42 | -1.97 ± 0.23
44 | CCAGAGCAAUAUUACGGCGU | -4.2 ± 0.23 | -3.29 ± 0.29
45 | GGAUAGCAAUAUUACGACCG | -1.59 ± 0.26 | -1.08 ± 0.28
46 | AUCCAGCAAUAUUACGUCGC | -3.25 ± 0.24 | -2.08 ± 0.19
47 | GAGCAGCAAUAUUACGCUUU | -1.94 ± 0.18 | -2.5 ± 0.26
48 | UACCAGCAAUAUUACGAGGG | -3.38 ± 0.2 | -1.3 ± 0.12
49 | AGGGAGCAAUAUUACGGACA | -2.85 ± 0.35 | -2.56 ± 0.29
50 | GUAGAGCAAUAUUACGCGUC | -0.836 ± 0.18 | -0.0736 ± 0.22

Row | Sequence | self-splicing fitness (ln) (30 °C) | self-splicing fitness (ln) (37 °C)
51 | GGUAAGCAAUAUUACGACAU | -0.0747 ± 0.013 | -0.0479 ± 0.033
52 | AUACAGCAAUAUUACGUAUC | -4.19 ± 0.21 | -2.6 ± 0.17
53 | AAUUAGCAAUAUUACGAGAA | -2.65 ± 0.48 | -1.05 ± 0.28
54 | ACCUAGCAAUAUUACGGUUA | -2.38 ± 0.18 | -1.57 ± 0.14
55 | GCUUAGCAAUAUUACGUGUA | -1.03 ± 0.077 | -0.175 ± 0.083
56 | GGCUAGCAAUAUUACGGGGU | -2.25 ± 0.1 | -1.29 ± 0.11
57 | GUGCAGCAAUAUUACGAGUA | -2.62 ± 0.34 | -1.8 ± 0.21
58 | CCAAAGCAAUAUUACGAUCC | -3.73 ± 0.31 | –
59 | UAUAAGCAAUAUUACGACAC | -1.87 ± 0.21 | -1.05 ± 0.26
60 | CUGCAGCAAUAUUACGACAC | -3.35 ± 0.23 | -3.61 ± 0.33
61 | AUCUAGCAAUAUUACGAAGA | -1.45 ± 0.14 | -1.67 ± 0.15
62 | CUUGAGCAAUAUUACGUAGC | -3.2 ± 0.2 | -2.4 ± 0.29
63 | GGUAAGCAAUAUUACGCGGU | -3.85 ± 0.31 | -0.403 ± 0.15
64 | GAUCAGCAAUAUUACGAUAC | -1.08 ± 0.078 | -0.733 ± 0.12
65 | AGUGAGCAAUAUUACGUUCG | -3.26 ± 0.16 | -2.22 ± 0.14
66 | ACAAAGCAAUAUUACGUUGG | -2.44 ± 0.068 | -1.57 ± 0.079
67 | AAGCAGCAAUAUUACGGUGU | -1.85 ± 0.09 | -0.979 ± 0.12
68 | AAGUAGCAAUAUUACGCUAU | -4.06 ± 0.35 | -1.9 ± 0.17
69 | AGUCAGCAAUAUUACGACUA | -0.831 ± 0.16 | 0.0945 ± 0.14
70 | CGUUAGCAAUAUUACGGACA | -0.317 ± 0.08 | 0.172 ± 0.1
71 | UAGUAGCAAUAUUACGUCCG | -0.377 ± 0.21 | -0.323 ± 0.36
72 | AGUAAGCAAUAUUACGCACC | -0.949 ± 0.24 | -0.969 ± 0.25
73 | GUGAAGCAAUAUUACGCUCA | -1.35 ± 0.12 | -1.62 ± 0.17
74 | CUCAAGCAAUAUUACGAUUG | -3.85 ± 0.18 | -2.5 ± 0.17
75 | UUGUAGCAAUAUUACGUAGG | -2.12 ± 0.15 | -1.04 ± 0.23

Row | Sequence | self-splicing fitness (ln) (30 °C) | self-splicing fitness (ln) (37 °C)
76 | CAUGAGCAAUAUUACGCAGG | -3.17 ± 0.19 | -1.51 ± 0.2
77 | CGGCAGCAAUAUUACGAUUC | -2.62 ± 0.17 | -2.3 ± 0.19
78 | CGACAGCAAUAUUACGUGCA | -1.57 ± 0.057 | -0.14 ± 0.07
79 | UCAUAGCAAUAUUACGAAUG | -2.7 ± 0.16 | -1.83 ± 0.16
80 | CCUUAGCAAUAUUACGGUAA | -2.78 ± 0.27 | -2.59 ± 0.35
81 | CCGUAGCAAUAUUACGGGAA | – | -2.04 ± 0.31
82 | UACGAGCAAUAUUACGGGCU | – | -2.43 ± 0.27
83 | CAGAAGCAAUAUUACGAAAC | -4.4 ± 0.46 | -2.18 ± 0.32
84 | AUUUAGCAAUAUUACGCUUC | -2.33 ± 0.5 | –
85 | UUUGAGCAAUAUUACGAGGU | -4.2 ± 0.46 | -3.66 ± 0.46
86 | UGACAGCAAUAUUACGAAUA | -1.26 ± 0.13 | -0.589 ± 0.14
87 | GAAGAGCAAUAUUACGGAUG | -3.4 ± 0.45 | -1.09 ± 0.31
88 | CUUUAGCAAUAUUACGCGCC | -3.07 ± 0.37 | -2.39 ± 0.45
89 | ACGCAGCAAUAUUACGAAAU | -2.55 ± 0.13 | -1.7 ± 0.15
90 | UGCCAGCAAUAUUACGUCAC | – | -2.01 ± 0.29
91 | AGAGAGCAAUAUUACGGAUG | – | -1.4 ± 0.36
92 | GACGAGCAAUAUUACGCUGC | – | -2.49 ± 0.49
93 | CGUUAGCAAUAUUACGAACU | -0.929 ± 0.075 | 0.785 ± 0.11
94 | ACGUAGCAAUAUUACGUGUU | -3.73 ± 0.13 | -2.37 ± 0.13
95 | AAACAGCAAUAUUACGGAGC | -3.7 ± 0.28 | -2.75 ± 0.22
96 | UGCUAGCAAUAUUACGCGCU | -1.96 ± 0.12 | -0.777 ± 0.13
97 | CUCUAGCAAUAUUACGUACG | -2.5 ± 0.23 | -1.4 ± 0.17
98 | GAAAAGCAAUAUUACGGUAC | -1.94 ± 0.079 | -1.11 ± 0.09
99 | GUAAAGCAAUAUUACGGCAA | -0.0595 ± 0.1 | -0.0616 ± 0.16
